Results on 40 substances are retold here after patent US20090098103A1.

One experiment addresses Human Recombinant TFPI (R&D Systems) (human) (UniProt P10646). Briefly: SPR (Biacore T100), TFPI on CM5 chip, 320 nM FVIIa + 620 nM sTF; 293-F cells.
UniProt P10646, sequence (P10646 29-282): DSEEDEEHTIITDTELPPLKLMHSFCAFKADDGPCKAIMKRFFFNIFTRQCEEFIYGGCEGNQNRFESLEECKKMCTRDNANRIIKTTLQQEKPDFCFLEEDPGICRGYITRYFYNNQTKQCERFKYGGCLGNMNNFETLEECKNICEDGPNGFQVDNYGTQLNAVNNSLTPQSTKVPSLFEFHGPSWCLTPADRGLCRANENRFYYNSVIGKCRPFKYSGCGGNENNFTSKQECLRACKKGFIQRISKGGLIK
Turning to “FVIIa variant CB558 K197E (from UniProt P08709 61-466) (enzyme)”, the Binding (wt/variant) came to 1.4 and the Dissociation (wt/variant) is 1.3.
“FVIIa variant CB563 K199E (from UniProt P08709 61-466) (enzyme)”: the Binding (wt/variant) is 1.4 and the Dissociation (wt/variant) worked out at 1.4.
For “FVIIa variant CB592 M298Q (from UniProt P08709 61-466) (enzyme)”, the Binding (wt/variant) came to 1.9 and the Dissociation (wt/variant) worked out at 1.8.
The corresponding values for “FVIIa variant CB593 V158D/E296V/M298Q (from UniProt P08709 61-466) (enzyme)” are 0.8 and 0.8.
The corresponding values for “FVIIa variant CB608 G237V (from UniProt P08709 61-466) (enzyme)” are 2.2 and 1.8.
In the case of “FVIIa variant CB609 K341Q (from UniProt P08709 61-466) (enzyme)”, the Dissociation (wt/variant) was determined as 19.7.
As to “FVIIa variant CB637 K197E/K341Q (from UniProt P08709 61-466) (enzyme)”, the Binding (wt/variant) came to 67.2 and the Dissociation (wt/variant) was found to be 171.
The corresponding values for “FVIIa variant CB670 G237V/K341Q (from UniProt P08709 61-466) (enzyme)” are 12.8 and 12.4.
As for “FVIIa variant CB671 K197E/G237V/K341Q (from UniProt P08709 61-466) (enzyme)”, the Binding (wt/variant) was 18.9 and the Dissociation (wt/variant) worked out at 21.8.
The corresponding values for “FVIIa variant CB688 K197E/K199E (from UniProt P08709 61-466) (enzyme)” are 2.2 and 2.1.
With “FVIIa variant CB689 K197E/G237V (from UniProt P08709 61-466) (enzyme)”, the Binding (wt/variant) is 1.8 and the Dissociation (wt/variant) came to 1.6.
With “FVIIa variant CB691 K197E/K199E/K341Q (from UniProt P08709 61-466) (enzyme)”, the Binding (wt/variant) came to 33.9 and the Dissociation (wt/variant) was determined as 68.1.
With “FVIIa variant CB692 K197E/G237V/M298Q/K341Q (from UniProt P08709 61-466) (enzyme)”, the Binding (wt/variant) is 15.9 and the Dissociation (wt/variant) was 21.5.
On the same counts, the results for “FVIIa variant CB693 K197E/K199E/G237V/M298Q/K341Q (from UniProt P08709 61-466) (enzyme)” are 23.4 and 43.5.
For “FVIIa variant CB694 K199E/K341Q (from UniProt P08709 61-466) (enzyme)”, the Binding (wt/variant) worked out at 18.8 and the Dissociation (wt/variant) came to 30.7.
On the same counts, the results for “FVIIa variant CB695 G237V/M298Q (from UniProt P08709 61-466) (enzyme)” are 0.9 and 0.8.
On to “FVIIa variant CB696 G237V/M298Q/K341Q (from UniProt P08709 61-466) (enzyme)”, for which the Binding (wt/variant) came out at 4.5 and the Dissociation (wt/variant) stood at 6.
As to “FVIIa variant CB697 R290N (from UniProt P08709 61-466) (enzyme)”, the Binding (wt/variant) came to 1.6 and the Dissociation (wt/variant) came to 1.5.
On the same counts, the results for “FVIIa variant CB698 R290Q (from UniProt P08709 61-466) (enzyme)” are 1.3 and 1.2.
Regarding “FVIIa variant CB699 R290K (from UniProt P08709 61-466) (enzyme)”, the Binding (wt/variant) is 0.7 and the Dissociation (wt/variant) came out at 0.7.
Regarding “FVIIa variant CB700 R290M (from UniProt P08709 61-466) (enzyme)”, the Binding (wt/variant) is 1.1 and the Dissociation (wt/variant) came to 1.1.
Take “FVIIa variant CB701 R290V (from UniProt P08709 61-466) (enzyme)”: the Binding (wt/variant) was 2.6 and the Dissociation (wt/variant) stood at 2.7.
On the same counts, the results for “FVIIa variant CB733 K341N (from UniProt P08709 61-466) (enzyme)” are 11.3 and 63.8.
The corresponding values for “FVIIa variant CB734 K341M (from UniProt P08709 61-466) (enzyme)” are 4.9 and 5.4.
Consider “FVIIa variant CB735 K341D (from UniProt P08709 61-466) (enzyme)”, for which the Binding (wt/variant) was determined as 186 and the Dissociation (wt/variant) stood at 381.
In the case of “FVIIa variant CB902 K197E/M298Q (from UniProt P08709 61-466) (enzyme)”, the Binding (wt/variant) is 2.6 and the Dissociation (wt/variant) turned out to be 2.3.
For the substance “FVIIa variant CB945 M298Q/K341D (from UniProt P08709 61-466) (enzyme)”, the Binding (wt/variant) was determined as 147 and the Dissociation (wt/variant) is 196.
The corresponding values for “wild-type Factor VII polypeptide (CB553-02), activated (FVIIa) (from UniProt P08709 61-466) (enzyme)” are 1 and 1.

A further experiment shares this target. The experiment can be described thus: SPR (Biacore T100), TFPI on CM5 chip, 320 nM FVIIa + 620 nM sTF; BHK-21 cells. (In general: In SPR one partner is held on a chip, and binding of the other changes the refractive index at the surface.)
Regarding “FVIIa variant CB593 V158D/E296V/M298Q (from UniProt P08709 61-466) (enzyme)”, the Binding (wt/variant) amounted to 1 and the Dissociation (wt/variant) was found to be 1.
“FVIIa variant CB853 G237T238insA (from UniProt P08709 61-466) (enzyme)”: the Binding (wt/variant) is 6.5 and the Dissociation (wt/variant) was determined as 18.2.
For “FVIIa variant CB854 G237T238insS (from UniProt P08709 61-466) (enzyme)”, the Binding (wt/variant) was determined as 5.2.
Turning to “FVIIa variant CB855 G237T238insV (from UniProt P08709 61-466) (enzyme)”, the Binding (wt/variant) is 7.3 and the Dissociation (wt/variant) turned out to be 16.8.
On the same counts, the results for “FVIIa variant CB856 G237T238insAS (from UniProt P08709 61-466) (enzyme)” are 22.8 and 154.
As to “FVIIa variant CB857 G237T238insSA (from UniProt P08709 61-466) (enzyme)”, the Binding (wt/variant) came to 21.5 and the Dissociation (wt/variant) came to 146.
Turning to “FVIIa variant CB858 D196K197insK (from UniProt P08709 61-466) (enzyme)”, the Binding (wt/variant) came to 1 and the Dissociation (wt/variant) was found to be 0.8.
“FVIIa variant CB859 D196K197insR (from UniProt P08709 61-466) (enzyme)”: the Binding (wt/variant) worked out at 0.5 and the Dissociation (wt/variant) is 0.5.
For the substance “FVIIa variant CB862 D196K197insA (from UniProt P08709 61-466) (enzyme)”, the Binding (wt/variant) worked out at 0.5 and the Dissociation (wt/variant) is 0.4.
For the substance “FVIIa variant CB863 D196K197insM (from UniProt P08709 61-466) (enzyme)”, the Binding (wt/variant) is 0.4 and the Dissociation (wt/variant) worked out at 0.4.
For “FVIIa variant CB864 K197I198insE (from UniProt P08709 61-466) (enzyme)”, the Binding (wt/variant) came to 1.3 and the Dissociation (wt/variant) turned out to be 1.1.
“FVIIa variant CB865 K197I198insY (from UniProt P08709 61-466) (enzyme)”: the Binding (wt/variant) came out at 1.1 and the Dissociation (wt/variant) was found to be 1.
On to “FVIIa variant CB867 K197I198insS (from UniProt P08709 61-466) (enzyme)”, for which the Binding (wt/variant) came to 0.7 and the Dissociation (wt/variant) was determined as 0.6.
The corresponding values for “wild-type Factor VII polypeptide (CB553-02), activated (FVIIa) (from UniProt P08709 61-466) (enzyme)” are 1 and 1.
